From article PMC12603982 (Angewandte Chemie (International Ed. in English), 2025) come the findings set out here.

Positions of bridges follow the written chain, without caps; N, C: chain ends. Non-standard residues stand in square brackets, D forms with d. Groups on a side chain read outwards from the residue. Primed or numbered codes have the meaning given here. No end group written: not given here. εdLys = D-Lys linked through its epsilon amine (k^ε); PEG5′ = PEG5 spacer, as named in the construct; Cy3s = Cy3s fluorophore, as named; Cy5s = Cy5s fluorophore, as named; Orn = NCCC[C@H](N)C(=O)O; Mpa = O=C(O)CCS

What all share (conditions): one partner purified
Experiment [1] addresses T1, human vasopressin V1a receptor (hV1aR) (human, UniProt P37288 1-418).
T1 construct: vasopressin V1a receptor, human; in membrane preparations; source: HEK293, stably expressing; membrane preparations
As to the kind of experiment: radioligand binding; displacement of [3H]-OT or [3H]-VP from membrane preparations of HEK293 cells stably expressing the human receptor; dose-response curves in duplicates, at least three independent experiments; Ki >10 µM assigned where <25% of the radioligand was displaced at 10 µM.

In experiment [2] the target is T2, human vasopressin V1b receptor (hV1bR) (human, UniProt P47901 1-424).
T2 construct: vasopressin V1b receptor, human; in membrane preparations; source: HEK293, stably expressing; membrane preparations
T2 sequence (looked up): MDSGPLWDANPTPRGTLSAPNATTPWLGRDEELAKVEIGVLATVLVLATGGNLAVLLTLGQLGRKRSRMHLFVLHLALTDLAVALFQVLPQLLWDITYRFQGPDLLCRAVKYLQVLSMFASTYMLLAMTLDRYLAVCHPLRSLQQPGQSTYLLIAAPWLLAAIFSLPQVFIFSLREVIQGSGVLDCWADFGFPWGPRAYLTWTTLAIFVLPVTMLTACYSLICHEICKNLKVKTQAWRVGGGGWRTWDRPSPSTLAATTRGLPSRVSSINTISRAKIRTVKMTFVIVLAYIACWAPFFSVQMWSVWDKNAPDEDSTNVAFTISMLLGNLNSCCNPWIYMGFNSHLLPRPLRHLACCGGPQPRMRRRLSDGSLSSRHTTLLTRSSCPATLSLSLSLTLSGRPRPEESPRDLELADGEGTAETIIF
Described as above.

Experiment [3] has as its target T3, human oxytocin receptor (hOTR) (human, UniProt P30559 1-389).
T3 construct: oxytocin receptor, human; in membrane preparations or on cells; constructs are in the Supporting Information; source: HEK293, stably expressing; membrane preparations (radioligand assay); free-floating cells (FACS)
T3 sequence (looked up): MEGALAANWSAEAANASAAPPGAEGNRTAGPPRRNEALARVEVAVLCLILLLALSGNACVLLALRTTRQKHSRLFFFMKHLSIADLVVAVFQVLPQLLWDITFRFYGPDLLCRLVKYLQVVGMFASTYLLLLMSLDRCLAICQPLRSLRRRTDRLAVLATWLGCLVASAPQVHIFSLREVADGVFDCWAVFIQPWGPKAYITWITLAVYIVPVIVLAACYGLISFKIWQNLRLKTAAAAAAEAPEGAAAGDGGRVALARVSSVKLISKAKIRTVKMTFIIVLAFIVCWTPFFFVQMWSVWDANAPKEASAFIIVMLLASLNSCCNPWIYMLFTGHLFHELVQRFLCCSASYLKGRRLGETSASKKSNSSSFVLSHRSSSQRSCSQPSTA
Described as above.

Experiment [4] deals with T4, murine vasopressin V1a receptor (mV1aR) (murine, UniProt Q62463 1-423).
T4 construct: vasopressin V1a receptor, murine; in membrane preparations; source: HEK293, transiently expressing; membrane preparations
As to the kind of experiment: radioligand binding; displacement of [3H]-OT or [3H]-VP from membrane preparations of HEK293 cells transiently expressing the murine receptor; dose-response curves in duplicates, at least three independent experiments; Ki >10 µM assigned where <25% of the radioligand was displaced at 10 µM. On the technique in general: In a radioligand displacement assay an active substance lowers the binding of a labelled ligand.

Experiment [5] addresses T5, murine vasopressin V2 receptor (mV2R) (murine, UniProt O88721 1-371).
T5 construct: vasopressin V2 receptor, murine; in membrane preparations; source: HEK293, transiently expressing; membrane preparations
Described as above.

The target in experiment [6] is T6, murine oxytocin receptor (mOTR) (murine, UniProt P97926 1-388).
T6 construct: oxytocin receptor, murine; in membrane preparations; source: HEK293, transiently expressing; membrane preparations
T6 sequence (looked up): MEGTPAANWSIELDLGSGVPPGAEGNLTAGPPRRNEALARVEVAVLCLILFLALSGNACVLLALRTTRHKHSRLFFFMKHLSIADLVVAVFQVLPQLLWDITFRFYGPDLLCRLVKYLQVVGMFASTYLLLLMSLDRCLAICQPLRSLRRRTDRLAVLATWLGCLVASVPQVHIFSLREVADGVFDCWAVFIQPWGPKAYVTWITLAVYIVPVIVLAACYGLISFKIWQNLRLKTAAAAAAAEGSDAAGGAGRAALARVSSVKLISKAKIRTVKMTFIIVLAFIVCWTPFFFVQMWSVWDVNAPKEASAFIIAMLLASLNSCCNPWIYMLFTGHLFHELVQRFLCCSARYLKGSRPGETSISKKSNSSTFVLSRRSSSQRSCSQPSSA
The description is as above.

Experiment [7] addresses T7, murine vasopressin V1b receptor (mV1bR) (murine, UniProt Q9WU02 1-421).
T7 construct: vasopressin V1b receptor, murine; in membrane preparations; source: HEK293, transiently expressing; membrane preparations
T7 sequence (looked up): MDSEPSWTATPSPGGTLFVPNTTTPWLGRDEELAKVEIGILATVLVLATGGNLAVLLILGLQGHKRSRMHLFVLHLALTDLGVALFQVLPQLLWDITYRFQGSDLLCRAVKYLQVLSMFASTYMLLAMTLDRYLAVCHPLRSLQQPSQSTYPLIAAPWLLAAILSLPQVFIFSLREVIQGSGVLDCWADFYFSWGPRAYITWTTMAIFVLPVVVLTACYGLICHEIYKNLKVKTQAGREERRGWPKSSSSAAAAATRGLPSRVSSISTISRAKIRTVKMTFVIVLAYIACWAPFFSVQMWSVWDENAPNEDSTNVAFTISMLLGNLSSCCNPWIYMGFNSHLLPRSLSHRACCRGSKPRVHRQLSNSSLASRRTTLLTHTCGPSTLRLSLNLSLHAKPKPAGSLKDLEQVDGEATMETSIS
Described as above.

T4 sequence (Q62463 whole entry): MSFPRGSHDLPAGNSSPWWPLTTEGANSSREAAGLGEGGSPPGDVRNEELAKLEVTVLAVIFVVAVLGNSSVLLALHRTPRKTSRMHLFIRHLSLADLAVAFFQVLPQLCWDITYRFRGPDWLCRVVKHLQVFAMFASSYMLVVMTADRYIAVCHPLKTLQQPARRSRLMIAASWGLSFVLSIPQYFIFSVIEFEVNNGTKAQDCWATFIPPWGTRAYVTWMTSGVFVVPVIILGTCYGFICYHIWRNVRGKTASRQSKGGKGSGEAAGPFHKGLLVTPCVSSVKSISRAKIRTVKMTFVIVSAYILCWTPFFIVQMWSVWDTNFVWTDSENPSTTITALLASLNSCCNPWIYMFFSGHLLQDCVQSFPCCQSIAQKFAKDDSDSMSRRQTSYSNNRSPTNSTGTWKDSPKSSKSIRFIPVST
T1 sequence (P37288 whole entry): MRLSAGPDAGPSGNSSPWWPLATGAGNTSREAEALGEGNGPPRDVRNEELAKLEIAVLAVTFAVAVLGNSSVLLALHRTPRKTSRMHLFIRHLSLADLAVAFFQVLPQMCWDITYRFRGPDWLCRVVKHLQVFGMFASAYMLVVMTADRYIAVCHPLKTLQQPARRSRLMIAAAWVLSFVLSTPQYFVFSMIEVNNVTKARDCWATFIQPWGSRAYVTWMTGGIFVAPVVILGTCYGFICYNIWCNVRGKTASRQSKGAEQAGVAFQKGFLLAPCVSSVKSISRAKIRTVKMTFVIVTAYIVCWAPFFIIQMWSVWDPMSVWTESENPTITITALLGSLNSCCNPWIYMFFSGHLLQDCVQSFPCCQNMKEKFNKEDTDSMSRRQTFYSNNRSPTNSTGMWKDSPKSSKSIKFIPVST
T5 sequence (O88721 whole entry): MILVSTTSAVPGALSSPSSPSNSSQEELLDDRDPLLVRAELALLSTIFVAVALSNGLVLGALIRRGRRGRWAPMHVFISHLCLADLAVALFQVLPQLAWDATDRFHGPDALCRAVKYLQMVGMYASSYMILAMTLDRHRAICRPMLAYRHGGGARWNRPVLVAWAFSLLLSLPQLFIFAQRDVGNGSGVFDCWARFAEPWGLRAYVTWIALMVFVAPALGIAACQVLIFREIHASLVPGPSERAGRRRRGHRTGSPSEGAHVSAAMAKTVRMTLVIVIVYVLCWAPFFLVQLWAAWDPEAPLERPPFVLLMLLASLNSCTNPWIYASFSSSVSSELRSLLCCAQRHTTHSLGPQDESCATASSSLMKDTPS

[Mpa]YIQNCP[Orn]([PEG5′-εdLys-Cy5s])G (disulfide 1-6) [d(Orn)^8OT‐[PEG5‐k^ε‐Cy5s]^8]: the Ki (as a rule, the dissociation constant of the complex between target and ligand, obtained from inhibition or displacement) in experiment [1] amounted to 11 nM; in experiment [2], 176 nM; in experiment [3] it was 1.2 nM.

For [Mpa]YIQNCP[Orn]([PEG5′-εdLys-Cy3s])G (disulfide 1-6) [d(Orn)^8OT‐[PEG5‐k^ε‐Cy3s]^8], the Ki in experiment [1] stood at 21 nM; in experiment [2], 242 nM; in experiment [3], 1.4 nM.

Consider [Mpa]INYQCP[Orn]([dD-PEG5′-εdLys-Cy3s])G (disulfide 1-6 (inferred)) [scrambled cyclic tracer dCINYQCP(Orn)G‐[d‐PEG5‐k^ε‐Cy3s]^8], for which the Ki in experiment [4], in experiment [5], in experiment [6], in experiment [7], in experiment [1] and in experiment [2] was more than 10000 nM in each case. In experiment [3], this molecule had an inhibitory constant (Ki) of more than 10000 nM.

As for [Mpa]YIQNCP[Orn]([dD-PEG5′-εdLys-TAMRA])G (disulfide 1-6) [d(Orn)^8OT‐[d‐PEG5‐k^ε‐TAMRA]^8], the Ki was determined as 631 nM in experiment [1], 932 nM in experiment [2] and 7.5 nM in experiment [3].

For the molecule [Mpa]YIQNCP[Orn]G (disulfide 1-6; not fully specified (residue 8)) [d(Orn)^8OT‐[d‐PEG5‐k^ε‐AF488]^8], the Ki was found to be 1430 nM in experiment [1], 1800 nM in experiment [2] and 22.6 nM in experiment [3].

For the molecule [Mpa]YIQNCP[Orn]([PEG5′-PEG5′-εdLys-Cy3s])G (disulfide 1-6) [d(Orn)^8OT‐[PEG5‐PEG5‐k^ε‐Cy3s]^8], the inhibitory constant (Ki) in experiment [1] was determined as 22 nM; in experiment [2], 199 nM; in experiment [3], 1.5 nM.

As for [Mpa]YIQNCP[Orn]([dD-PEG5′-Cy5s])G (disulfide 1-6) [d(Orn)^8OT‐[d‐PEG5‐Cy5s]^8], the Ki was found to be 553 nM in experiment [1], 1320 nM in experiment [2] and 6 nM in experiment [3].

On to [Mpa]YIQNCP[Orn]([εdLys-εdLys-Cy3s])G (disulfide 1-6) [d(Orn)^8OT‐[k^ε‐k^ε‐Cy3s]^8], for which the Ki in experiment [1] turned out to be 3.3 nM; in experiment [2] it was 10 nM; in experiment [3], 0.8 nM.

Consider [Mpa]YIQNCP[Orn](Cy5s)G (disulfide 1-6) [d(Orn)^8OT‐[Cy5s]^8], for which the inhibitory constant (Ki) in experiment [1] worked out at 23 nM; in experiment [2], 86 nM; in experiment [3], 0.9 nM.

B1: Oxytocin (OT) (peptide)
peptide: CYIQNCPLG
notes: oxytocin, endogenous nonapeptide ligand of OTR; numbers count on: the mature nonapeptide
For the molecule B1, the figures for the Ki in experiment [4], in experiment [5] and in experiment [7] were 1400 nM, 1570 nM and 416 nM, respectively.

B2: Vasopressin (VP) (peptide)
peptide: CYFQNCPRG
notes: vasopressin (arginine at position 8), endogenous nonapeptide; numbers count on: the mature nonapeptide
Consider B2, for which the Ki turned out to be 1 nM in experiment [4], 8.1 nM in experiment [6] and 0.4 nM in experiment [7].

In the case of [Mpa]YIQNCP[Orn]G (disulfide 1-6) [d(Orn)^8OT], the Ki in experiment [1] is 0.4 nM; in experiment [2], 0.8 nM; in experiment [3], 0.7 nM.

For [Mpa]YIQNCP[Orn]([PEG5′-Cy5s])G (disulfide 1-6) [d(Orn)^8OT‐[PEG5‐Cy5s]^8], the values for the Ki in experiment [1], in experiment [2] and in experiment [3] were 70 nM, 376 nM and 1.3 nM, respectively.

Regarding [Mpa]YIQNCP[Orn]([PEG5′-Cy3s])G (disulfide 1-6) [d(Orn)^8OT‐[PEG5‐Cy3s]^8], the Ki in experiment [1] amounted to 80 nM; in experiment [2] it was 372 nM; in experiment [3], 1.5 nM.
